What was measured:
α-synuclein (α-syn) [1] = molecular target: α-synuclein (α-syn) (UniProt P37840); assay: ThT fluorescence of ONE-induced self-aggregation; conditions: reference: α-syn not treated with PLK3; sites S129
α-synuclein (α-syn) [2] = molecular target: α-synuclein (α-syn) (UniProt P37840); assay: ThT fluorescence of agitation-induced self-aggregation; conditions: reference: α-syn not treated with PLK3; sites S129

“α-synuclein (α-syn) (from UniProt P37840) PLK3-phosphorylated α-syn (p-α-syn)” was tested, and the fold change (α-synuclein (α-syn) [1]) was “stronger; reference 1” and the fold change (α-synuclein (α-syn) [2]) was “stronger; reference 1”.

From publication PMC11082957
